pIC50: −log10 of the molar value.
Key:
[1] = target: VEGF (vascular endothelial growth factor) (UniProt P15692); assay: BioVeris ECL competition assay with a labeled competitor; legend: +++ = IC50 about 2 - 10 µM
[2] = target: TGFβ1 (transforming growth factor β1) (UniProt P01137); assay: BioVeris ECL competition assay with a labeled competitor; legend: ++ = IC50 about 10 - 50 µM
[3] = target: FGF-5 (fibroblast growth factor 5) (UniProt P12034); assay: BioVeris ECL competition assay with a labeled competitor; negative control
Chain of FGF-5 (fibroblast growth factor 5) (P12034 18-268 limits assumed): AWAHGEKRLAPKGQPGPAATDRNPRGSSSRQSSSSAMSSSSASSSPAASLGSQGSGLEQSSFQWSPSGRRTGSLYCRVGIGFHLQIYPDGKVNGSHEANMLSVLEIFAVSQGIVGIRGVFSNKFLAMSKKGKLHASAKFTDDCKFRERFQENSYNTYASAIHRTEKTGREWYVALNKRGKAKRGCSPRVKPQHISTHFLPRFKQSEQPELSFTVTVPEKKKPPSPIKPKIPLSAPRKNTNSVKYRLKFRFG

[4] = target: VEGF (vascular endothelial growth factor) (UniProt P15692); assay: as above

Chain of VEGF (vascular endothelial growth factor) (P15692 other isoform, or with tags, fused parts or gaps limits assumed): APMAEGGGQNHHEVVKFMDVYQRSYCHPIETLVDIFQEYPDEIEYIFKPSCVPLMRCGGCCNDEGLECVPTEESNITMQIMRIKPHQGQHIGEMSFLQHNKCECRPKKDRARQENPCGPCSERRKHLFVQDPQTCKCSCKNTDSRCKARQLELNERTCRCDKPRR
Chain of TGFβ1 (transforming growth factor β1) (P01137 279-390 limits assumed): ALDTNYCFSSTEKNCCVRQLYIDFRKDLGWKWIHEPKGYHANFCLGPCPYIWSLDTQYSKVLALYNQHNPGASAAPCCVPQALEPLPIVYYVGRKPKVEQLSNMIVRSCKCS

| Substance | pIC50 [1] | pIC50 [2] | also measured |
| --- | --- | --- | --- |
| BBIt-VEGK (BBIt with the VEGF-binding peptide VegK KYYLYWW in the chymotrypsin loop) (designed binder) | 5.00 to 5.70 | – | – |
| BBIt-VEGT (BBIt with the VEGF-binding peptide VegT TLWKSYW in the chymotrypsin loop) (designed binder) | 5.00 to 5.70 | – | – |
| sBBI (wild-type soybean Bowman-Birk Inhibitor) (from UniProt P01055 40-110) | – | – | pIC50 [3]: < 3.60; pIC50 [4]: < 3.60 |

More lines, main results first:

| pIC50 [1] | pIC50 [2] | Substance | also measured |
| --- | --- | --- | --- |
| 5.00 to 5.70 | – | BBIt with the VEGF-binding peptide VegKD (KYDLYWW) in the chymotrypsin loop (designed binder) | – |
| – | 4.30 to 5.00 | PEN3-Q-BBIt-TGF-A40L-F50N (BBIt-A40L-F50N with the TGFβ1 binding peptide PEN3 PENINVLP) (designed binder) | – |
| – | 4.30 to 5.00 | WTQ-BBIt-Q-TGF (BBIt-A13I-L29P-F50T-V52A with the TGFβ1 binding peptide WTQ WTQHIHN) (designed binder) | – |
